Assay results reported in IntAct's records for PubMed 7890747.

B1: Retinoblastoma-associated protein (Homo sapiens), P06400 (parent)
chain: MPPKTPRKTAATAAAAAAEPPAPPPPPPPEEDPEQDSGPEDLPLVRLEFEETEEPDFTALCQKLKIPDHVRERAWLTWEKVSSVDGVLGGYIQKKKELWGICIFIAAVDLDEMSFTFTELQKNIEISVHKFFNLLKEIDTSTKVDNAMSRLLKKYDVLFALFSKLERTCELIYLTQPSSSISTEINSALVLKVSWITFLLAKGEVLQMEDDLVISFQLMLCVLDYFIKLSPPMLLKEPYKTAVIPINGSPRTPRRGQNRSARIAKQLENDTRIIEVLCKEHECNIDEVKNVYFKNFIPFMNSLGLVTSNGLPEVENLSKRYEEIYLKNKDLDARLFLDHDKTLQTDSIDSFETQRTPRKSNLDEEVNVIPPHTPVRTVMNTIQQLMMILNSASDQPSENLISYFNNCTVNPKESILKRVKDIGYIFKEKFAKAVGQGCVEIGSQRYKLGVRLYYRVMESMLKSEEERLSIQNFSKLLNDNIFHMSLLACALEVVMATYSRSTSQNLDSGTDLSFPWILNVLNLKAFDFYKVIESFIKAEGNLTREMIKHLERCEHRIMESLAWLSDSPLFDLIKQSKDREGPTDHLESACPLNLPLQNNHTAADMYLSPVRSPKKKGSTTRVNSTANAETQATSAFQTQKPLKSTSLSLFYKKVYRLAYLRLNTLCERLLSEHPELEHIIWTLFQHTLQNEYELMRDRHLDQIMMCSMYGICKVKNIDLKFKIIVTAYKDLPHAVQETFKRVLIKEEEYDSIIVFYNSVFMQRLKTNILQYASTRPPTLSPIPHIPRSPYKFPSSPLRIPGGNIYISPLKSPYKISEGLPTPTKMTPRSRILVSIGESFGTSEKFQKINQMVCNSDRVLKRSAEGSNPPKPLKKLRFDIEGSDEADGSKHLPGESKFQQKLAEMTSTRTRMQKQKMNDSMDTSNKEEK
partner: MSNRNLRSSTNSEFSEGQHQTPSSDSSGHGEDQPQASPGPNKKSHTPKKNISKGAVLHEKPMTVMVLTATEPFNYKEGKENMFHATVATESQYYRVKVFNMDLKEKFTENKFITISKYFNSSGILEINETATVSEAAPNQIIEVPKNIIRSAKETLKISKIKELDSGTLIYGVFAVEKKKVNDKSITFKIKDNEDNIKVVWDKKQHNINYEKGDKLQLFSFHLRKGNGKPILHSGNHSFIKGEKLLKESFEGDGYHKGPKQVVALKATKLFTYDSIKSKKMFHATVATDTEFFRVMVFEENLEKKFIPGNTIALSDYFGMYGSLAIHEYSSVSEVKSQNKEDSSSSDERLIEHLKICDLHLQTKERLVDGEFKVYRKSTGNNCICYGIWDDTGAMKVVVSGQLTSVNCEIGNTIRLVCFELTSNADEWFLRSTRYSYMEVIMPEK

Variants of: B1
Conditions: with ifi2_mouse Ifi202, Q9R002

| Variant | effect of a mutation on the interaction |
| --- | --- |
| C706F | decreasing interaction |
